Data taken from article PMC6679477, “Optimization of a nicotine degrading enzyme for potential use in treatment of nicotine addiction” (BMC Biotechnology, 2019).

B1: wt NicA2 (Pseudomonas putida S16) (protein)
chain: MSDKTKTNEGFSRRSFIGSAAVVTAGVAGLGAIDAASATQKTNRASTVKGGFDYDVVVVGGGFAGATAARECGLQGYRTLLLEARSRLGGRTFTSRFAGQEIEFGGAWVHWLQPHVWAEMQRYGLGVVEDPLTNLDKTLIMYNDGSVESISPDEFGKNIRIAFEKLCHDAWEVFPRPHEPMFTERARELDKSSVLDRIKTLGLSRLQQAQINSYMALYAGETTDKFGLPGVLKLFACGGWNYDAFMDTETHYRIQGGTIGLINAMLTDSGAEVRMSVPVTAVEQVNGGVKIKTDDDEIITAGVVVMTVPLNTYKHIGFTPALSKGKQRFIKEGQLSKGAKLYVHVKQNLGRVFAFADEQQPLNWVQTHDYSDELGTILSITIARKETIDVNDRDAVTREVQKMFPGVEVLGTAAYDWTADPFSLGAWAAYGVGQLSRLKDLQAAEGRILFAGAETSNGWHANIDGAVESGLRAGREVKQLLS
notes: full-length, C-terminal His6 tag kept, expressed in E. coli, purified, 52 kDa on SDS-PAGE; FAD enzyme

What was measured:
CN1CCC[C@H]1c1cccnc1 = system: T1, CN1CCC[C@H]1c1cccnc1; assay: residual nicotine by GC; progress curves fitted in KinTek, Km derived from kcat/Km and kcat; type: biochemical, Pseudomonas putida; settings: rat serum, 37 °C, 250 nM (40 ng/mL) nicotine, O2 as oxidant
T1 construct: full-length, C-terminal His6 tag kept, expressed in E. coli, purified, 52 kDa on SDS-PAGE; FAD enzyme
Text: (§1) residual nicotine by GC; progress curves fitted in KinTek, Km derived from kcat/Km and kcat on wt NicA2

[1] = substrate: CN1CCC[C@H]1c1cccnc1; assay: as above; type: biochemical, Pseudomonas putida; settings: rat serum, 37 °C, 250 nM (40 ng/mL) nicotine, O2 as oxidant
Text: as §1

Row | Molecule | Km (CN1CCC[C@H]1c1cccnc1) | kcat (CN1CCC[C@H]1c1cccnc1) | kcat/Km (CN1CCC[C@H]1c1cccnc1) | Km [1] | kcat [1] | kcat/Km [1]
1 | wt NicA2 (Pseudomonas putida S16; A107G) | 0.335 µM | 0.053 s⁻¹ | 160000 M⁻¹ s⁻¹ |  |  | 
2 | wt NicA2 (Pseudomonas putida S16; A107R) | 0.83 µM | 0.159 s⁻¹ | 190000 M⁻¹ s⁻¹ |  |  | 
3 | wt NicA2 (Pseudomonas putida S16; A107T) | 0.285 µM | 0.05 s⁻¹ | 180000 M⁻¹ s⁻¹ |  |  | 
4 | wt NicA2 (Pseudomonas putida S16; A426C) | 0.23 µM | 0.03 s⁻¹ | 130000 M⁻¹ s⁻¹ |  |  | 
5 | wt NicA2 (Pseudomonas putida S16; F104I) | 0.24 µM | 0.039 s⁻¹ | 160000 M⁻¹ s⁻¹ |  |  | 
6 | wt NicA2 (Pseudomonas putida S16; F104R) | 0.27 µM | 0.041 s⁻¹ | 150000 M⁻¹ s⁻¹ |  |  | 
7 | wt NicA2 (Pseudomonas putida S16; F104S) | 0.25 µM | 0.031 s⁻¹ | 130000 M⁻¹ s⁻¹ |  |  | 
8 | wt NicA2 (Pseudomonas putida S16; F104T) | 0.33 µM | 0.055 s⁻¹ | 170000 M⁻¹ s⁻¹ |  |  | 
9 | wt NicA2 (Pseudomonas putida S16; F355H) | 0.22 µM | 0.029 s⁻¹ | 130000 M⁻¹ s⁻¹ |  |  | 
10 | wt NicA2 (Pseudomonas putida S16; G106A) | 0.28 µM | 0.031 s⁻¹ | 110000 M⁻¹ s⁻¹ |  |  | 
11 | B1 |  |  |  | 0.24 µM | 0.015 s⁻¹ | 64000 M⁻¹ s⁻¹
